According to patent US20240228562A1 (Pieris, published 2024):

T1: recombinant rat CTGF protein (R&D Systems) (rat, UniProt Q9R1E9 25-347)
T1 construct: Bought; also called rCTGF
T1 sequence: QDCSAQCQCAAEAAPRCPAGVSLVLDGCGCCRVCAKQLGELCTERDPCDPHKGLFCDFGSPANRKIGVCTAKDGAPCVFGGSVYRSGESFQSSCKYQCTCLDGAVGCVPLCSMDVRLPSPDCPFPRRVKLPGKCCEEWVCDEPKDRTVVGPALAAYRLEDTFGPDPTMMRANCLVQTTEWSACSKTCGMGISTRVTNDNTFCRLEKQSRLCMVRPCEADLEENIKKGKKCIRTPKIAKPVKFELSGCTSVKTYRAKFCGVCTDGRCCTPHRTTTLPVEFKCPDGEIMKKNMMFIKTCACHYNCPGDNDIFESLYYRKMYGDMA

T2: mouse CTGF (Abbexa) (mouse, UniProt P29268 26-348, limits assumed)
T2 construct: also called Murine CTGF; mCTGF
T2 sequence (looked up): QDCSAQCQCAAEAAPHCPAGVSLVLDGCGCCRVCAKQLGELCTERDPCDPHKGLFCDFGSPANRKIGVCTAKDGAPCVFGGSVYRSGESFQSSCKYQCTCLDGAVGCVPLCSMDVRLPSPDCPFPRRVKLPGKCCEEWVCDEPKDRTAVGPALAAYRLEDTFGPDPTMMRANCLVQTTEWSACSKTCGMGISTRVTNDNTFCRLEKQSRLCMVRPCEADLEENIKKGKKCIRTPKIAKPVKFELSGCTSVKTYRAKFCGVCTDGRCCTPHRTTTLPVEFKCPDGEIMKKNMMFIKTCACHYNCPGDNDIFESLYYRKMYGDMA

T3: cynomolgus CTGF (cynomolgus, UniProt I7G525 27-349)
T3 construct: also called cyCTGF
T3 sequence: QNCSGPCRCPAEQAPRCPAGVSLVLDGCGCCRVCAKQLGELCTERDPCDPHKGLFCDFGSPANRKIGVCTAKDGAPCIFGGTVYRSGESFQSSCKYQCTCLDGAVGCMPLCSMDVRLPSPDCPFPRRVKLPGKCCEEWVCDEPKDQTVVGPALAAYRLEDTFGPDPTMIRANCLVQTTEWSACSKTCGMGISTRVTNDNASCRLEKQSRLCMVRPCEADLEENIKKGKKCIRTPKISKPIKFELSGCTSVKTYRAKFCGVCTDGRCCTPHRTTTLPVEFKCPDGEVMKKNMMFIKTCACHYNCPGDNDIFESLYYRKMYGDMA


Assays:
Test in all cases: SPR (Biacore)
[1] = target: T4, recombinant human CTGF-Fc protein (Creative Biomart) (human)
T4 construct: Bought; also called human CTGF with a human IgG1 Fc Tag
T4 sequence (chain, as listed by the source limits assumed): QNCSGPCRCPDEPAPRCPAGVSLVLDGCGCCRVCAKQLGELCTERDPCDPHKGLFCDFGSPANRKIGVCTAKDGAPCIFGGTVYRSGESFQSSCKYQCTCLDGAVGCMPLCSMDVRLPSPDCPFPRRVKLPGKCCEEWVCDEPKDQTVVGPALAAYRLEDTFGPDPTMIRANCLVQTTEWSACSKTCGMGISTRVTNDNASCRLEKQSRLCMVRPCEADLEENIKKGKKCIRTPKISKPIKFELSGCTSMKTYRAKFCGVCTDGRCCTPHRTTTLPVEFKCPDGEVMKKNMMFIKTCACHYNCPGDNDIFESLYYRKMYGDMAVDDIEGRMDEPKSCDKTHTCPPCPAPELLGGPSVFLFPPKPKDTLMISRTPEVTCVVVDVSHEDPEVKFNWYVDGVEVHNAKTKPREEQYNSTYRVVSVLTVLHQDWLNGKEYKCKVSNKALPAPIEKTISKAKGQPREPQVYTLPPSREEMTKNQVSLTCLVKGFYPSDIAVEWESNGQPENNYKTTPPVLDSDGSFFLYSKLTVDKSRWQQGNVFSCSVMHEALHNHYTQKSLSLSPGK
Method: (§1) The binding of exemplary lipocalin muteins to human (Creative Biomart), cynomolgus, rat (R&D Systems) and mouse CTGF (Abbexa) was determined by SPR using a Biacore instrument (Cytiva, formerly GE Healthcare). Some targets were fused to a human IgG1 Fc tag, and captured via the anti-human IgG antibody kit, others were directly immobilized.
(§2) For some measurements, human CTGF with a human IgG1 Fc Tag or rat or murine CTGF without a tag were directly immobilized to a CM5 Chip. The carboxyl groups on the chip were activated using 1-ethyl-3-(3-dimethylaminopropyl)-carbodiimide (EDC) and N-hydroxysuccinimide (NHS). […] Residual non-reacted NHS-esters were blocked by passing a solution of 1 M ethanolamine across the surface. The reference channel was activated/deactivated. For the capture setting, targets with an IgG Fc Tag at 0.25-2.5 μg/mL in HBS-EP+ buffer were captured by the anti-human IgG-Fc antibody at the chip surface for 180 s at a flow rate of 10 μL/min.
(§3) The binding assay was carried out with a contact time of 180 s, a dissociation time of 900-3600 s and a flow rate of 30 μL/min. All measurements were performed at 25° C. […] For the directly immobilized targets, the same regeneration conditions were used. Prior to the protein measurements, three startup cycles were performed for conditioning purposes.

[2] = target: T1, recombinant rat CTGF protein (R&D …)
Method: as §1, §2, §3

mouse CTGF (Abbexa) = target: T2, mouse CTGF (Abbexa)
Method: as §1, §2, §3

cynomolgus CTGF = target: T3, cynomolgus CTGF
Method: as §1, §2, §3

Kd [1] | koff [1] | kon [1] | Kd [2] | koff [2] | kon [2] | Kd (mouse CTGF (Abbexa)) | koff (mouse CTGF (Abbexa)) | kon (mouse CTGF (Abbexa)) | Kd (cynomolgus CTGF) | koff (cynomolgus CTGF) | kon (cynomolgus CTGF) | Binder
0.033 nM | 2.23e-06 s⁻¹ | 67700 M⁻¹ s⁻¹ | 0.46 nM | 4.08e-05 s⁻¹ | 88800 M⁻¹ s⁻¹ | – | – | – | – | – | – | lipocalin mutein of SEQ ID NO: 10 (designed binder, also called hNGAL mutein; not shown: C-terminal His-tag) QDSTSDLIPAPPLSKVPLQQNFQDNQFQGKWYVVGLAGNAILREDKQPAKMFATIYELKEDKSYDVTSVRFEAKSCSYTIKTFVPGSQPGEFTAGNIKSAPGQTSTLVRVVSTNYNQHAMVFWKSVAGTRESFNIALYGRTKELTSELKENFIRFSKSLGLPENHIVFPVPIDQCIDG
0.057 nM | 8.05e-06 s⁻¹ | 142000 M⁻¹ s⁻¹ | 0.221 nM | 4.01e-05 s⁻¹ | 181000 M⁻¹ s⁻¹ | – | – | – | – | – | – | lipocalin mutein of SEQ ID NO: 22 (designed binder, also called hNGAL mutein; not shown: C-terminal His-tag) QDSTSDLIPAPPLSKVPLQQNFQDNQFQGKWYVVGIAGNAILRVDKQPAKMFATIYELKEDKSYDVTSVRFEAKSCVYTIKTFVPGSQPGEFTAGNIKSAPGQTSTLVRVVSTNYNQHAMVFFKHVSQNREIFVITLYGRTKELTSELKENFIRFSKSLGLPENHIVFPVPIDQCIDG
2.52 nM | 0.000114 s⁻¹ | 45400 M⁻¹ s⁻¹ | – | – | – | 1.81 nM | 0.000131 s⁻¹ | 72000 M⁻¹ s⁻¹ | – | – | – | lipocalin mutein of SEQ ID NO: 8 (designed binder, also called hNGAL mutein; not shown: C-terminal His-tag) QDSTSDLIPAPPLSKVPLQQNFQDNQFQGKWYVVGLAGNYGLRTDKRPSKMFATIYELKEDKSYDVTSVRFEQERCHYTIRTFVPGSQPGEFTSGNIGNYPGSYSTLVRVVSTNYNQHAMVFFKSVIQNREYFAITLYGRTKELTSELKENFIRFSKSLGLPENHIVFPVPIDQCIDG
0.09 nM | 1.41e-05 s⁻¹ | 157000 M⁻¹ s⁻¹ | 0.255 nM | 3.51e-05 s⁻¹ | 138000 M⁻¹ s⁻¹ | 0.034 nM | 1.16e-05 s⁻¹ | 299000 M⁻¹ s⁻¹ | 0.135 nM | 2.63e-05 s⁻¹ | 195000 M⁻¹ s⁻¹ | lipocalin mutein of SEQ ID NO: 24 (designed binder, also called hNGAL mutein) QDSTSDLIPAPPLSKVPLQQNFQDNQFQGKWYVVGVAGNAILRTDKQPAKMFATIYELKEDKSYDVTSVRFEAKSCKYTIKTFVPGSQPGEFTAGNIKSAPGQTSTLVRVVSTNYNQHAMVFFKHVSQNREIFVITLYGRTKELTSELKENFIRFSKSLGLPENHIVFPVPIDQCIDG
0.249 nM | 4.85e-05 s⁻¹ | 195000 M⁻¹ s⁻¹ | 1.89 nM | 0.000423 s⁻¹ | 223000 M⁻¹ s⁻¹ | 1.58 nM | 0.000444 s⁻¹ | 281000 M⁻¹ s⁻¹ | 0.452 nM | 7.31e-05 s⁻¹ | 162000 M⁻¹ s⁻¹ | lipocalin mutein of SEQ ID NO: 31 (designed binder, also called hNGAL mutein; not shown: C-terminal His-tag) QDSTSDLIPAPPLSKVPLQQNFQDNQFQGKWYVVGWAGNVKLREDKQPQKMSATIYELKEDKSYDVTEVVFEQKKCHYIIKTFVPGSQPGEFTAGDIKSPPGYTSSLVRVVSTNYNQHAMVFFKKVSQNREFFWITLYGRTKELTSELKENFIRFSKSLGLPENHIVFPVPIDQCIDG
0.099 nM | 1.71e-05 s⁻¹ | 172000 M⁻¹ s⁻¹ | 0.226 nM | 6.3e-05 s⁻¹ | 279000 M⁻¹ s⁻¹ | 0.301 nM | 5.29e-05 s⁻¹ | 176000 M⁻¹ s⁻¹ | – | – | – | lipocalin mutein of SEQ ID NO: 33 (designed binder, also called hNGAL mutein; not shown: C-terminal His-tag) QDSTSDLIPAPPLSKVPLQQNFQDNQFQGKWYVVGWAGNAKLREDKQPFKMSATIYELKEDKSYDVTEVVFEQKKCHYIIKTFVPGSQPGEFTEGNYKRRPRLWSDLVRVVSTNYNQHAMVFFKKVHQNREFFWITLYGRTKELTSELKENFIRFSKSLGLPENHIVFPVPIDQCIDG
1.13 nM | 0.000169 s⁻¹ | 150000 M⁻¹ s⁻¹ | – | – | – | 11.9 nM | 0.00286 s⁻¹ | 240000 M⁻¹ s⁻¹ | 1.72 nM | 0.000238 s⁻¹ | 139000 M⁻¹ s⁻¹ | lipocalin mutein of SEQ ID NO: 34 (designed binder, also called hNGAL mutein) QDSTSDLIPAPPLSKVPLQQNFQDNQFQGKWYVVGWAGNVILREDKQPFKMSATIYELKEDKSYDVTEVVFEQKKCHYIIKTFVPGSQPGEFTLGDIKSPPGETSTLVRVVSTNYNQHAMVFFKKVSQNREFFWITLYGRTKELTSELKENFIRFSKSLGLPENHIVFPVPIDQCIDG
0.587 nM | 6.39e-05 s⁻¹ | 109000 M⁻¹ s⁻¹ | – | – | – | 1.98 nM | 0.000264 s⁻¹ | 133000 M⁻¹ s⁻¹ | – | – | – | lipocalin mutein of SEQ ID NO: 32 (designed binder, also called hNGAL mutein; not shown: C-terminal His-tag) QDSTSDLIPAPPLSKVPLQQNFQDNQFQGKWYVVGWAGNVKLREDKQPFKMSATIYELKEDKSYDVTEVVFEQKKCHYIIKTFVPGSQPGEFTLSPISSSPGLVSHLVRVVSTNYNQHAMVFFKKVHQNREFFWITLYGRTKELTSELKENFIRFSKSLGLPENHIVFPVPIDQCIDG
0.55 nM | 5.94e-05 s⁻¹ | 108000 M⁻¹ s⁻¹ | 1.42 nM | 0.000273 s⁻¹ | 193000 M⁻¹ s⁻¹ | 2.24 nM | 0.000287 s⁻¹ | 128000 M⁻¹ s⁻¹ | – | – | – | lipocalin mutein of SEQ ID NO: 35 (designed binder, also called hNGAL mutein; not shown: C-terminal His-tag) QDSTSDLIPAPPLSKVPLQQNFQDNQFQGKWYVVGWAGNVKLREDKQPLKMSATIYELKEDKSYDVTEVVFEQKKCHYIIKTFVPGSQPGEFTAGDIKSPPGYTSSLVRVVSTNYNQHAMVFFKKVSQNREFFWITLYGRTKELTSELKENFIRFSKSLGLPENHIVFPVPIDQCIDG
0.42 nM | 6.95e-05 s⁻¹ | 165000 M⁻¹ s⁻¹ | – | – | – | 1.68 nM | 0.00052 s⁻¹ | 310000 M⁻¹ s⁻¹ | 0.695 nM | 9.77e-05 s⁻¹ | 141000 M⁻¹ s⁻¹ | lipocalin mutein of SEQ ID NO: 36 (designed binder, also called hNGAL mutein) QDSTSDLIPAPPLSKVPLQQNFQDNQFQGKWYVVGWAGNVKLREDKQPAKMSATIYELKEDKSYDVTEVVFEQKKCHYIIKTFVPGSQPGEFTAGDIKSPPGYTSSLVRVVSTNYNQHAMVFFKKVGQNREFFWITLYGRTKELTSELKENFIRFSKSLGLPENHIVFPVPIDQCIDG
0.315 nM | 6.65e-05 s⁻¹ | 211000 M⁻¹ s⁻¹ | 1.23 nM | 0.000362 s⁻¹ | 294000 M⁻¹ s⁻¹ | – | – | – | – | – | – | lipocalin mutein of SEQ ID NO: 5 (designed binder, also called hNGAL mutein; not shown: C-terminal His-tag) QDSTSDLIPAPPLSKVPLQQNFQDNQFQGKWYVVGKAGNALREDKEPPKMWATIYELKEDKSYDVTHVHFLTKKCKYLIDTFVPGSQPGEFTIGAIKSGPGLTSPLVRVVSTNYNQHAMVFFKWVSQNREWFTITLYGRTKELTSELKENFIRFSKSLGLPENHIVFPVPIDQCIDG
0.517 nM | 2.61e-05 s⁻¹ | 50400 M⁻¹ s⁻¹ | – | – | – | 1.35 nM | 8.23e-05 s⁻¹ | 60700 M⁻¹ s⁻¹ | – | – | – | lipocalin mutein of SEQ ID NO: 28 (designed binder, also called hNGAL mutein; not shown: C-terminal His-tag) QDSTSDLIPAPPLSKVPLQQNFQDNQFQGKWYVVGLAGNYRLREDKDPSKMGATIYELKEDKSYDVTQVQFDDKKCLYVIETFVPGSQPGEFTLGAIKSYPGLTSQLVRVVSTNYNQHAMVFVKKVWPNLEYFQIVLYGRTKELTSELKENFIRFSKSLGLPENHIVFPVPIDQCIDG
